Laboratory results from the nanobody polyreactivity screen of Harvey et al. (2022).

Assay: yeast display, Sf9 membrane polyspecificity reagent, FACS + sequencing; frameworks hold sequencing errors
Method in brief: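 Galactose-induced (36–48 hours) yeast carrying a synthetic nanobody display library were exposed to 10% biotinylated, detergent-solubilized Sf9 membrane reagent at 4 °C for 1 hour. FACS followed streptavidin microbead enrichment, using low and high (top ~1%) gates for expression (anti-HA) and reagent binding (streptavidin). Colony PCR, MiSeq 2 × 250 sequencing and CDR-length filtering followed. Labels for polyreactivity reflect the gate of origin.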
For “QVQLVESGGGLVQAGGSLRLSCAASGLTFLRNGMGLYRQAPGKERELVASITRSGTRTYYADSVKGRFTISRDNAKNSVYLQMNSLKPEDTAVYYCAARAYVSHYGVSNFGFYYWVQGTQVTVSS”, the “polyreactivity (PSR sort gate)” value was “high polyreactivity”.
In the case of “QVQLVESGGGLVQAGGSLRLSCAASGLTFNHYAMGWYRQAPGKERELVAAISSGSSTDYADSVKGRFTISRDNAKTTVYLQMHSLKPEDTAVYYCAVETPSTWFWGWGYDYDYWGQGTQVTVSS”, the “polyreactivity (PSR sort gate)” value is reported as “high polyreactivity”.
In the case of “QVQLVESGGGLVQAGGSLRLSCAASGLTFPANVMGWYRQAPGKERELVAAISRSGGTTYYADSVKGRFTISRDNAKNTVYLQMNILKPEDTAVYYCAAYQVSYFGGSMDYWGQGTQVTVSS”, the “polyreactivity (PSR sort gate)” value is reported as “high polyreactivity”.
In the case of “QVQLVESGGGLVQAGGSLRLSCAASGLTFPGYAMGWYRQAPGKERELVAGISKRGGSTYYADSVKGRFTISRDNAKNTVYLQMNSLKPEDTAVYYCAAVYRSQSQPYDYWGQGTQVTVSS”, the “polyreactivity (PSR sort gate)” value is reported as “high polyreactivity”.
For “QVQLVESGGGLVQAGGSLRLSCAASGLTFPPNAMGWYRQATGKEREFVAVISSGGGSTYYADSVKVRFTISRDNAKNTVYLQMNSLNPEDTAVYYCATEYQDGETEYYYWGQGTQVTVSS”, the “polyreactivity (PSR sort gate)” value was “low polyreactivity”.
In the case of “QVQLVESGGGLVQAGGSLRLSCAASGLTFPRYAMGGYRQAPGKERELVAAISYRGGRTYYADSVKGRFTISRDNAKNTVYLQMNSLKPEDTAVYYCNADSIYSARGWLYGYWGQGTQVTVSS”, the “polyreactivity (PSR sort gate)” value is reported as “low polyreactivity”.
For “QVQLVESGGGLVQAGGSLRLSCAASGLTFPTYAMRWYRQAPGKERELVAAISRIGGRTYYADSVKGRFSISRDNAKNTVYLQMNSLKPEDTAVYYCAADGIKGGVEYDYWGQGTQVTVSS”, the “polyreactivity (PSR sort gate)” value was “high polyreactivity”.
For “QVQLVESGGGLVQAGGSLRLSCAASGLTFPWYAMGWYRQAPGKERELVASINSSTGSTYYADSVKGRFTISRDNAKNTVYLQMNSLKPEYTAVYYCAAVEYGNMDWGQGTQVTVSS”, the “polyreactivity (PSR sort gate)” value was “low polyreactivity”.
For “QVQLVESGGGLVQAGGSLRLSCAASGLTFPYYVMGWYRQAPGKERELVAAISSSGGSTYYADSVKGRFTISRDNAKNTVYLQMNSLKPEDTAVYYCNAPYVFSAGFDYWGQGTQVTVSS”, the “polyreactivity (PSR sort gate)” value was “low polyreactivity”.
In the case of “QVQLVESGGGLVQAGGSLRLSCAASGLTFQSYAMGWYRQAPGKERELVATISNGSSTYYADSVKGRFTISRDNAKNSVYLQMNSLKPEDTAVYYCAKDYYYSRNPLYGHDYWGQGTQVTVSS”, the “polyreactivity (PSR sort gate)” value is reported as “low polyreactivity”.
For “QVQLVESGGGLVQAGGSLRLSCAASGLTFQYNAMGWYRQAPGKERELVASINSGGSTDYADSVKGRFTISRDNAKNTVYLQMNRLKQEDTAVYYCATSGYWYSASYGYEYWGQGTQVTLSS”, the “polyreactivity (PSR sort gate)” value was “low polyreactivity”.
For “QVQLVESGGGLVQAGGSLRLSCAASGLTFRRYAMGWYRQAPGKERELVAAINSRGGSTYYADSVKGRFTISRDNAKNTVYLQMNSLKPEDTAVYYCATRSFGRMDYWGQGTQVTVSS”, the “polyreactivity (PSR sort gate)” value was “high polyreactivity”.
In the case of “QVQLVESGGGLVQAGGSLRLSCAASGLTFRTYTMGWYRQAPGKERELVAAISSSGSTKYADSVKGRFTISRDNAKNTVYLQMICLKPEDTAVYYCAARGRIYFTQYGYWGQVTQVTVSS”, the “polyreactivity (PSR sort gate)” value is reported as “high polyreactivity”.
In the case of “QVQLVESGGGLVQAGGSLRLSCAASGLTFRVNAMGWYRQAPGKERELVAVISTDGGTTYYADSVKGRFTISRDNAKNTVYLQINSLKPEDTAVYYCAAKYAQVYIWVRQIHFDYWGQGTQVTVSS”, the “polyreactivity (PSR sort gate)” value is reported as “low polyreactivity”.
With “QVQLVESGGGLVQAGGSLRLSCAASGLTFRVYAMGWYRQAPGKERELVAAISKRGGSTYYADSVKGRFTISRDNAKNTVYLQMNSLKPEDTAVYYCAAEPPPYEYVYWGQGTQVTVSS” the “polyreactivity (PSR sort gate)” value was “high polyreactivity”.
For “QVQLVESGGGLVQAGGSLRLSCAASGLTFRYNAMGWYRQAHGKERELVARISRNGGRTYYADSVKGRFTISRDNAKNTVYLQMNSLKPEDSAVYYCNVVYFVTTSPGYDYWGQGTKVTVSS”, the “polyreactivity (PSR sort gate)” value was “high polyreactivity”.
